This passage reports MFI results from patent US20230235012A1 (ALPINE IMMUNE SCIENCES, published 2023).

The target of test [1] is T1, human CD28, full-length, expressed on transfected Expi293 cells (human, UniProt P10747 19-220).
T1 construct: whole, on cells
As to the kind of experiment: flow cytometry, 100 nM, Expi293 cells with human CD28. In general terms: In flow cytometry, cells or beads pass a laser one at a time.

For test [2], the target named is T2, human CTLA-4, full-length, expressed on transfected Expi293 cells (human, UniProt P16410 36-223).
T2 construct: whole, on cells
As to the kind of experiment: flow cytometry, 100 nM, Expi293 cells with human CTLA-4.

T2 sequence (P16410 36-223): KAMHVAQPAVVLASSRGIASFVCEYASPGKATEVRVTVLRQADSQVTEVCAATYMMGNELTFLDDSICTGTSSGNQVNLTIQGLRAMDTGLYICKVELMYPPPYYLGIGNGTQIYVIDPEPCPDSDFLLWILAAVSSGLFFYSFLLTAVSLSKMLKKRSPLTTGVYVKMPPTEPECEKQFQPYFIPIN

B1: variant ICOSL IgV-Fc fusion N52A/N57H/Q100S (Fc fusion)
chain: DTQEKEVRAMVGSDVELSCACPEGSRFDLNDVYVYWQTSESKTVVTYHIPQASSLEHVDSRYRNRALMSPAGMLRGDFSLRLFNVTPQDEQKFHCLVLSSSLGFQEVLSVEVTLHVAANFSVGSGGGGSEPKSSDKTHTCPPCPAPEAEGAPSVFLFPPKPKDTLMISRTPEVTCVVVDVSHEDPEVKFNWYVDGVEVHNAKTKPREEQYNSTYRVVSVLTVLHQDWLNGKEYKCKVSNKALPAPIEKTISKAKGQPREPQVYTLPPSREEMTKNQVSLTCLVKGFYPSDIAVEWESNGQPENNYKTTPPVLDSDGSFFLYSKLTVDKSRWQQGNVFSCSVMHEALHNHYTQKSLSLSPG
Consider B1, for which the MFI in test [1] was 159000 MFI; in test [2], 321000 MFI.

B2: variant ICOSL IgV-Fc fusion N52S/N57A/Q100A (Fc fusion)
chain: DTQEKEVRAMVGSDVELSCACPEGSRFDLNDVYVYWQTSESKTVVTYHIPQSSSLEAVDSRYRNRALMSPAGMLRGDFSLRLFNVTPQDEQKFHCLVLSASLGFQEVLSVEVTLHVAANFSVGSGGGGSEPKSSDKTHTCPPCPAPEAEGAPSVFLFPPKPKDTLMISRTPEVTCVVVDVSHEDPEVKFNWYVDGVEVHNAKTKPREEQYNSTYRVVSVLTVLHQDWLNGKEYKCKVSNKALPAPIEKTISKAKGQPREPQVYTLPPSREEMTKNQVSLTCLVKGFYPSDIAVEWESNGQPENNYKTTPPVLDSDGSFFLYSKLTVDKSRWQQGNVFSCSVMHEALHNHYTQKSLSLSPG
Regarding B2, the values for the MFI in test [1] and in test [2] were 98200 MFI and 233000 MFI, respectively.

B3: variant ICOSL IgV-Fc fusion N52D/N57A/Q100A (Fc fusion)
chain: DTQEKEVRAMVGSDVELSCACPEGSRFDLNDVYVYWQTSESKTVVTYHIPQDSSLEAVDSRYRNRALMSPAGMLRGDFSLRLFNVTPQDEQKFHCLVLSASLGFQEVLSVEVTLHVAANFSVGSGGGGSEPKSSDKTHTCPPCPAPEAEGAPSVFLFPPKPKDTLMISRTPEVTCVVVDVSHEDPEVKFNWYVDGVEVHNAKTKPREEQYNSTYRVVSVLTVLHQDWLNGKEYKCKVSNKALPAPIEKTISKAKGQPREPQVYTLPPSREEMTKNQVSLTCLVKGFYPSDIAVEWESNGQPENNYKTTPPVLDSDGSFFLYSKLTVDKSRWQQGNVFSCSVMHEALHNHYTQKSLSLSPG
With B3, the values for the MFI in test [1] and in test [2] were 138000 MFI and 340000 MFI, respectively.

B4: variant ICOSL IgV-Fc fusion N52P/N57P (Fc fusion)
chain: DTQEKEVRAMVGSDVELSCACPEGSRFDLNDVYVYWQTSESKTVVTYHIPQPSSLEPVDSRYRNRALMSPAGMLRGDFSLRLFNVTPQDEQKFHCLVLSQSLGFQEVLSVEVTLHVAANFSVGSGGGGSEPKSSDKTHTCPPCPAPEAEGAPSVFLFPPKPKDTLMISRTPEVTCVVVDVSHEDPEVKFNWYVDGVEVHNAKTKPREEQYNSTYRVVSVLTVLHQDWLNGKEYKCKVSNKALPAPIEKTISKAKGQPREPQVYTLPPSREEMTKNQVSLTCLVKGFYPSDIAVEWESNGQPENNYKTTPPVLDSDGSFFLYSKLTVDKSRWQQGNVFSCSVMHEALHNHYTQKSLSLSPG
Consider B4, for which the MFI in test [1] worked out at 21000 MFI.

B5: variant ICOSL IgV-Fc fusion N52R/N57F/Q100R (Fc fusion)
chain: DTQEKEVRAMVGSDVELSCACPEGSRFDLNDVYVYWQTSESKTVVTYHIPQRSSLEFVDSRYRNRALMSPAGMLRGDFSLRLFNVTPQDEQKFHCLVLSRSLGFQEVLSVEVTLHVAANFSVGSGGGGSEPKSSDKTHTCPPCPAPEAEGAPSVFLFPPKPKDTLMISRTPEVTCVVVDVSHEDPEVKFNWYVDGVEVHNAKTKPREEQYNSTYRVVSVLTVLHQDWLNGKEYKCKVSNKALPAPIEKTISKAKGQPREPQVYTLPPSREEMTKNQVSLTCLVKGFYPSDIAVEWESNGQPENNYKTTPPVLDSDGSFFLYSKLTVDKSRWQQGNVFSCSVMHEALHNHYTQKSLSLSPG
In the case of B5, the MFI in test [1] came out at 185000 MFI; in test [2] it was 464000 MFI.

B6: variant ICOSL IgV-Fc fusion N52R/N57F/Q100N (Fc fusion)
chain: DTQEKEVRAMVGSDVELSCACPEGSRFDLNDVYVYWQTSESKTVVTYHIPQRSSLEFVDSRYRNRALMSPAGMLRGDFSLRLFNVTPQDEQKFHCLVLSNSLGFQEVLSVEVTLHVAANFSVGSGGGGSEPKSSDKTHTCPPCPAPEAEGAPSVFLFPPKPKDTLMISRTPEVTCVVVDVSHEDPEVKFNWYVDGVEVHNAKTKPREEQYNSTYRVVSVLTVLHQDWLNGKEYKCKVSNKALPAPIEKTISKAKGQPREPQVYTLPPSREEMTKNQVSLTCLVKGFYPSDIAVEWESNGQPENNYKTTPPVLDSDGSFFLYSKLTVDKSRWQQGNVFSCSVMHEALHNHYTQKSLSLSPG
Consider B6, for which the MFI in test [1] was determined as 161000 MFI; in test [2], 233000 MFI.

B7: variant ICOSL IgV-Fc fusion N52D/Q100S (Fc fusion)
chain: DTQEKEVRAMVGSDVELSCACPEGSRFDLNDVYVYWQTSESKTVVTYHIPQDSSLENVDSRYRNRALMSPAGMLRGDFSLRLFNVTPQDEQKFHCLVLSSSLGFQEVLSVEVTLHVAANFSVGSGGGGSEPKSSDKTHTCPPCPAPEAEGAPSVFLFPPKPKDTLMISRTPEVTCVVVDVSHEDPEVKFNWYVDGVEVHNAKTKPREEQYNSTYRVVSVLTVLHQDWLNGKEYKCKVSNKALPAPIEKTISKAKGQPREPQVYTLPPSREEMTKNQVSLTCLVKGFYPSDIAVEWESNGQPENNYKTTPPVLDSDGSFFLYSKLTVDKSRWQQGNVFSCSVMHEALHNHYTQKSLSLSPG
Regarding B7, the MFI in test [1] was 95700 MFI; in test [2] it was 333000 MFI.

B8: variant ICOSL IgV-Fc fusion N52R/N57F/Q100P (Fc fusion)
chain: DTQEKEVRAMVGSDVELSCACPEGSRFDLNDVYVYWQTSESKTVVTYHIPQRSSLEFVDSRYRNRALMSPAGMLRGDFSLRLFNVTPQDEQKFHCLVLSPSLGFQEVLSVEVTLHVAANFSVGSGGGGSEPKSSDKTHTCPPCPAPEAEGAPSVFLFPPKPKDTLMISRTPEVTCVVVDVSHEDPEVKFNWYVDGVEVHNAKTKPREEQYNSTYRVVSVLTVLHQDWLNGKEYKCKVSNKALPAPIEKTISKAKGQPREPQVYTLPPSREEMTKNQVSLTCLVKGFYPSDIAVEWESNGQPENNYKTTPPVLDSDGSFFLYSKLTVDKSRWQQGNVFSCSVMHEALHNHYTQKSLSLSPG
On to B8, for which the figures for the MFI in test [1] and in test [2] were 154000 MFI and 504000 MFI, respectively.

B9: variant ICOSL IgV-Fc fusion N52R/N57W (Fc fusion)
chain: DTQEKEVRAMVGSDVELSCACPEGSRFDLNDVYVYWQTSESKTVVTYHIPQRSSLEWVDSRYRNRALMSPAGMLRGDFSLRLFNVTPQDEQKFHCLVLSQSLGFQEVLSVEVTLHVAANFSVGSGGGGSEPKSSDKTHTCPPCPAPEAEGAPSVFLFPPKPKDTLMISRTPEVTCVVVDVSHEDPEVKFNWYVDGVEVHNAKTKPREEQYNSTYRVVSVLTVLHQDWLNGKEYKCKVSNKALPAPIEKTISKAKGQPREPQVYTLPPSREEMTKNQVSLTCLVKGFYPSDIAVEWESNGQPENNYKTTPPVLDSDGSFFLYSKLTVDKSRWQQGNVFSCSVMHEALHNHYTQKSLSLSPG
Consider B9, for which the MFI in test [1] was 137000 MFI; in test [2] it was 318000 MFI.

B10: variant ICOSL IgV-Fc fusion N52R/N57Y/Q100P (Fc fusion)
chain: DTQEKEVRAMVGSDVELSCACPEGSRFDLNDVYVYWQTSESKTVVTYHIPQRSSLEYVDSRYRNRALMSPAGMLRGDFSLRLFNVTPQDEQKFHCLVLSPSLGFQEVLSVEVTLHVAANFSVGSGGGGSEPKSSDKTHTCPPCPAPEAEGAPSVFLFPPKPKDTLMISRTPEVTCVVVDVSHEDPEVKFNWYVDGVEVHNAKTKPREEQYNSTYRVVSVLTVLHQDWLNGKEYKCKVSNKALPAPIEKTISKAKGQPREPQVYTLPPSREEMTKNQVSLTCLVKGFYPSDIAVEWESNGQPENNYKTTPPVLDSDGSFFLYSKLTVDKSRWQQGNVFSCSVMHEALHNHYTQKSLSLSPG
As to B10, the values for the MFI in test [1] and in test [2] were 133000 MFI and 502000 MFI, respectively.

B11: variant ICOSL IgV-Fc fusion N52T/N57K/Q100P (Fc fusion)
chain: DTQEKEVRAMVGSDVELSCACPEGSRFDLNDVYVYWQTSESKTVVTYHIPQTSSLEKVDSRYRNRALMSPAGMLRGDFSLRLFNVTPQDEQKFHCLVLSPSLGFQEVLSVEVTLHVAANFSVGSGGGGSEPKSSDKTHTCPPCPAPEAEGAPSVFLFPPKPKDTLMISRTPEVTCVVVDVSHEDPEVKFNWYVDGVEVHNAKTKPREEQYNSTYRVVSVLTVLHQDWLNGKEYKCKVSNKALPAPIEKTISKAKGQPREPQVYTLPPSREEMTKNQVSLTCLVKGFYPSDIAVEWESNGQPENNYKTTPPVLDSDGSFFLYSKLTVDKSRWQQGNVFSCSVMHEALHNHYTQKSLSLSPG
On to B11, for which the MFI in test [1] came out at 88700 MFI; in test [2], 78300 MFI.

B12: variant ICOSL IgV-Fc fusion N52S/N57L/Q100G (Fc fusion)
chain: DTQEKEVRAMVGSDVELSCACPEGSRFDLNDVYVYWQTSESKTVVTYHIPQSSSLELVDSRYRNRALMSPAGMLRGDFSLRLFNVTPQDEQKFHCLVLSGSLGFQEVLSVEVTLHVAANFSVGSGGGGSEPKSSDKTHTCPPCPAPEAEGAPSVFLFPPKPKDTLMISRTPEVTCVVVDVSHEDPEVKFNWYVDGVEVHNAKTKPREEQYNSTYRVVSVLTVLHQDWLNGKEYKCKVSNKALPAPIEKTISKAKGQPREPQVYTLPPSREEMTKNQVSLTCLVKGFYPSDIAVEWESNGQPENNYKTTPPVLDSDGSFFLYSKLTVDKSRWQQGNVFSCSVMHEALHNHYTQKSLSLSPG
With B12, the MFI in test [1] came to 71900 MFI; in test [2], 79400 MFI.

B13: variant ICOSL IgV-Fc fusion N52T/N57Y/Q100A (Fc fusion)
chain: DTQEKEVRAMVGSDVELSCACPEGSRFDLNDVYVYWQTSESKTVVTYHIPQTSSLEYVDSRYRNRALMSPAGMLRGDFSLRLFNVTPQDEQKFHCLVLSASLGFQEVLSVEVTLHVAANFSVGSGGGGSEPKSSDKTHTCPPCPAPEAEGAPSVFLFPPKPKDTLMISRTPEVTCVVVDVSHEDPEVKFNWYVDGVEVHNAKTKPREEQYNSTYRVVSVLTVLHQDWLNGKEYKCKVSNKALPAPIEKTISKAKGQPREPQVYTLPPSREEMTKNQVSLTCLVKGFYPSDIAVEWESNGQPENNYKTTPPVLDSDGSFFLYSKLTVDKSRWQQGNVFSCSVMHEALHNHYTQKSLSLSPG
B13: the MFI turned out to be 161000 MFI in test [1] and 341000 MFI in test [2].

B14: variant ICOSL IgV-Fc fusion N52G/N57P/Q100D (Fc fusion)
chain: DTQEKEVRAMVGSDVELSCACPEGSRFDLNDVYVYWQTSESKTVVTYHIPQGSSLEPVDSRYRNRALMSPAGMLRGDFSLRLFNVTPQDEQKFHCLVLSDSLGFQEVLSVEVTLHVAANFSVGSGGGGSEPKSSDKTHTCPPCPAPEAEGAPSVFLFPPKPKDTLMISRTPEVTCVVVDVSHEDPEVKFNWYVDGVEVHNAKTKPREEQYNSTYRVVSVLTVLHQDWLNGKEYKCKVSNKALPAPIEKTISKAKGQPREPQVYTLPPSREEMTKNQVSLTCLVKGFYPSDIAVEWESNGQPENNYKTTPPVLDSDGSFFLYSKLTVDKSRWQQGNVFSCSVMHEALHNHYTQKSLSLSPG
Turning to B14, the MFI in test [1] worked out at 5720 MFI; in test [2] it was 10200 MFI.
